Assay results from patent US20240076330A1.

Assays:
IFNGR1 (human) = IFNGR1 (human) (UniProt P15260); assay: cell-based or functional assay
[1] = molecular target: IL-6 receptor (IL6R) (human) (UniProt P08887); assay: cell-based or functional assay
UniProt P08887, sequence (P08887 20-468): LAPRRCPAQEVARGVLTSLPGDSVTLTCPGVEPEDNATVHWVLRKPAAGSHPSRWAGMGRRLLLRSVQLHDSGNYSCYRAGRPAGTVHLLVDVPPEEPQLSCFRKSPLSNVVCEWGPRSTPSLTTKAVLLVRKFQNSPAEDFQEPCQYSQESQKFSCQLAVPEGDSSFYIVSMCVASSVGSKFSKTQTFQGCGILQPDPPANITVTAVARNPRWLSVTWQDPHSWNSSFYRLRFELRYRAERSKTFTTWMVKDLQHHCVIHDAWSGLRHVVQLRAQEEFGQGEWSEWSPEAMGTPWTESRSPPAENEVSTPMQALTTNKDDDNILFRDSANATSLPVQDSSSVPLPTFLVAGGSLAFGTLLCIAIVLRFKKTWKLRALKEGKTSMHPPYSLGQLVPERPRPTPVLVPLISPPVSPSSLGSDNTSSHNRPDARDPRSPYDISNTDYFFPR

UniProt P15260, sequence (P15260 18-489): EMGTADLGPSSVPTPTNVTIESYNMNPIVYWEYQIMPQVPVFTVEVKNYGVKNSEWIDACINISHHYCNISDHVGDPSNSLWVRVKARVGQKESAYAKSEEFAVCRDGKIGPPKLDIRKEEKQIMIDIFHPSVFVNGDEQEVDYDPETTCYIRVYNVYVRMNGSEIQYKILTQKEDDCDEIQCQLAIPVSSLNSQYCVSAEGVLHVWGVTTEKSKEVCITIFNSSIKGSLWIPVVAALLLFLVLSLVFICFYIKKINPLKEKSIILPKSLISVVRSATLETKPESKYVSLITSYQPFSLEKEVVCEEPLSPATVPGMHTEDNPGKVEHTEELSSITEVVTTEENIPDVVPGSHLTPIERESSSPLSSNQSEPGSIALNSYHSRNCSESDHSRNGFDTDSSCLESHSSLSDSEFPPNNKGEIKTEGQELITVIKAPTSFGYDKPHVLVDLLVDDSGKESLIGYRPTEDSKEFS

Substance | pSTAT1 levels after IFNγ in THP1-Cas9 cells with gRNAs targeting IFNGR1 (fold decrease) (IFNGR1 (human)) | percent of cells with increased pSTAT1 after IFNγ, clusters with gRNAs targeting IFNGR1 (IFNGR1 (human)) [%] | pSTAT1 levels after IL-6 in THP1-Cas9 cells with gRNAs targeting IL6R (fold reduction) [1] | pSTAT3 levels after IL-6 in THP1-Cas9 cells with gRNAs targeting IL6R (fold reduction) [1]
IFNγ (from UniProt P01579 24-166) (ligand) | 15 | 25 |  | 
IL-6 (from UniProt P05231 30-212) (ligand) |  |  | 2 | 2
